{"source": "patent EP2246362B1", "about": "“Polymer conjugates of mutated neublastin” (Biogen Idec MA Inc., priority 2003, dated 2004)", "molecules": {"B1": {"name": "3(,4) X 10 kDa PEG NBN106-N95K (ligand)", "chain": "ARATDARGCRLRSQLVPVSALGLGHSSDELIRFRFCSGSCRRARSPHDLSLASLLGAGALRSPPGSRPISQPCCRPTRYEAVSFMDVKSTWRTVDHLSATACGCLG", "modifications": "average of 3.3 10 kDa PEG (SPA-PEG) per dimer: on both amino-terminal amino acids and on one or both Lys95 (PEGylated amino acids 1,1,95 (,95))"}, "B2": {"name": "4 X 10 kDa PEG NBN106-N95K (ligand)", "chain": "B1 chain", "modifications": "10 kDa PEG on the amino-terminal amino acid and on Lys95 of each chain (PEGylated amino acids 1,1,95,95)"}, "B3": {"name": "wild-type rat neublastin (NBN113), E. coli derived (ligand)", "chain": "AGTRSSRARATDARGCRLRSQLVPVSALGLGHSSDELIRFRFCSGSCRRARSPHDLSLASLLGAGALRSPPGSRPISQPCCRPTRYEAVSFMDVNSTWRTVDHLSATACGCLG"}, "B4": {"name": "3 (,4) X 10 kDa PEG NBN106-N95K: mixed population of NBN106-N95K homodimers conjugated to three or four 10 kDa PEG moieties, average 3.3 PEG per dimer (conjugate)", "chain": "B1 chain"}}, "key": {"[1]": {"biological_target": "T1, c-Ret on NB41A3-mRL3 cells (UniProt P35546 29-1115, limits assumed)", "T1 sequence (P35546 29-1115 limits assumed)": "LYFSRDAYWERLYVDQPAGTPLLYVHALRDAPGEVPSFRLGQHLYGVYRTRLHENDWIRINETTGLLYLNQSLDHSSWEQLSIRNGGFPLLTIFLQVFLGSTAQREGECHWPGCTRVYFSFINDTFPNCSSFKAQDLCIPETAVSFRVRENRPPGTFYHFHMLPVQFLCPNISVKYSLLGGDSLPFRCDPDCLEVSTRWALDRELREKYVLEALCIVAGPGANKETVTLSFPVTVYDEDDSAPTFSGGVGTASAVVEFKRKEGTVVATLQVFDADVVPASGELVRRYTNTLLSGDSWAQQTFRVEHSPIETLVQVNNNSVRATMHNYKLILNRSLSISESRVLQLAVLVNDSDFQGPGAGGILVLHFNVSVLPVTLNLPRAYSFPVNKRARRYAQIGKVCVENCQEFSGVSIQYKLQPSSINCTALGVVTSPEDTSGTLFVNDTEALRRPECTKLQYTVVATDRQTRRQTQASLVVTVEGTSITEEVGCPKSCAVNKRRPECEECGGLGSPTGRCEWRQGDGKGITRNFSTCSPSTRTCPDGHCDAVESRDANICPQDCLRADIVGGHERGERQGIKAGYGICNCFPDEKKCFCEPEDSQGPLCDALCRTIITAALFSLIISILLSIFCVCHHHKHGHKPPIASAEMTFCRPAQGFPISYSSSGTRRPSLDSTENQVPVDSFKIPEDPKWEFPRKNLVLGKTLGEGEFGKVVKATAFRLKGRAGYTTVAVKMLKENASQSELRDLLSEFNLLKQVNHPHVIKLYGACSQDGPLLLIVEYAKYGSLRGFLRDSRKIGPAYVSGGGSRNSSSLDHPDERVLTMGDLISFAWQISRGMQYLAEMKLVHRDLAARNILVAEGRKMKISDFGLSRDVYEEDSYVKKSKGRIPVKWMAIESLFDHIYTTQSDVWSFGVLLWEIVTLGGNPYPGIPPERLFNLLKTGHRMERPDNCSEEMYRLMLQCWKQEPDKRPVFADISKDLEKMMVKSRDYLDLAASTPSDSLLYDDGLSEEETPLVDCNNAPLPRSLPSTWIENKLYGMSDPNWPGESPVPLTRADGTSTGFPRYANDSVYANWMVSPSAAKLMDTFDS", "assay": "cell-based or functional assay"}, "[2]": {"biological_target": "T1, c-Ret on NB41A3-mRL3 cells", "assay": "cell-based or functional assay", "remark": "listed apart in the source"}, "[3]": {"biological_target": "T2, c-Ret (Mus musculus, UniProt O35118+P35546)", "T2 construct": "NB41A3-mRL3 cells, an adherent murine neuroblastoma cell line which expresses Ret and GFRα3; endogenous in cells; host or cells: NB41A3-mRL3 (murine neuroblastoma)", "T2 sequence (P35546 29-1115)": "as the sequence (P35546 29-1115 limits assumed) above", "T2 sequence (O35118 29-397)": "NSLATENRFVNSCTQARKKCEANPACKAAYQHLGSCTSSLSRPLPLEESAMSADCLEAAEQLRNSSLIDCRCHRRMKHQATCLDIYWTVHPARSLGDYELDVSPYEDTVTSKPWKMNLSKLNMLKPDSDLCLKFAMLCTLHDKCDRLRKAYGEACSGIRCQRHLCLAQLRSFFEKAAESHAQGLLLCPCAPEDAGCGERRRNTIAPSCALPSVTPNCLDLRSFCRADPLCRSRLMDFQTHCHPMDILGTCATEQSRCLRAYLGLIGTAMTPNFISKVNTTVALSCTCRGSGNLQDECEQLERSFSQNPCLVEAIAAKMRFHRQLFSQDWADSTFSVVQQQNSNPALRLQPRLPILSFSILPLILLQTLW", "assay": "Kinase Receptor Activation (KIRA) ELISA: neublastin dependent phosphorylation of c-Ret in NB41A3-mRL3 cells", "assay_type": "cell-based, murine", "experimental": "The potency of PEGylated mutated rat neublastin was measured using neublastin dependent activation/ phosphorylation of c-Ret as a reporter for neublastin activity in an ELISA that was specific for the presence of phosphorylated RET. NB41A3-mRL3 cells, an adherent murine neuroblastoma cell line which expresses Ret and GFRα3, were plated at 2 x 10^5 cells per well in 24-well plates in Dulbecco's modified eagle medium (DMEM), supplemented with 10 % fetal bovine serum, and cultured for 18 h at 37 °C and 5 % CO2.\nThe cells were washed with PBS, and treated with serial dilutions of neublastin in 0.25 mL of DMEM for 10 min at 37°C and 5 % CO2. Each sample was analyzed in duplicate. The cells were washed with 1 mL of PBS, and lysed for 1h at 4 °C with 0.30 mL of 10 mM Tris HC1, pH 8.0, 0.5 % Nonidet P40, 0.2 % sodium deoxycholate, 50 mM NaF, 0.1 mM Na3 VO4,1 mM phenylmethylsulfonyl fluoride with gently rocking the plates. The lysates were further agitated by repeated pipetting and 0.25 mL of sample was transferred to a 96-well ELISA plate that had been coated with 5 µg/mL of anti-Ret mAb (AA.GE7.3) in 50 mM carbonate buffer, pH 9.6 at 4°C for 18 h, and blocked at room temperature for one hour with block buffer (20 mM Tris HC1 pH 7.5, 150 mM NaCl, 0.1% Tween-20 (TBST) containing 1 % normal mouse serum and 3 % bovine serum albumin).\nAfter a 2 h incubation at room temperature, the wells were washed 6-times with TBST. Phosphorylated Ret was detected by incubating the wells at room temperature for 2 h with 2 µg/mL of horseradish peroxidase (HRP)-conjugated anti-phosphotyrosine 4G10 antibody in block buffer, washing 6-times with TBST, and measuring HRP activity at 450 nm with a colorometric detection reagent. The absorbance values from wells treated with lysate or with lysis buffer were measured and the background corrected signal was plotted as a function of the concentration of neublastin present in the activation mixture.\nNeublastin activity was determined by its ability to stimulate c-Ret phosphorylation in NB41A3-mRL3 cells using the KIRA ELISA described in Example 3. Phosphorylated Ret was detected by incubating (2 hours) the captured receptor with HRP-conjugated phosphotyrosine antibody (4G10; 0.2 µg per well). Following the incubation, the wells were washed six times with TBST, and the HRP activity detected at 450 nm with a colorimetric assay. The absorbance values from wells treated with lysate or with lysis buffer alone were measured, background corrected, and the data plotted as a function of the concentration of neublastin present in the activation mixture."}, "[4]": {"parameters": "species or system mice", "conditions": "mouse, in vivo", "source_text": "The pharmokinetic properties of various PEGylated and non-PEGylated mutated neublastin products in rat and mouse models were examined (see Table 8 for summary of results). The analysis of the PEGylated […] samples are complicated by the presence of adducts comprising 2, 3 and 4 PEGs per molecule, which each will display a different PK profile. In early PK studies, mice were used to facilitate screening through a variety of candidates and routes of administration. […] This difference in bioavailability was particularly pronounced following i.p. administration. Levels in mice reached 1600 ng/mL after 7 hr and remained at 400 ng/mL after 24 hr. In contrast, rat levels were constant at 100 ng/mL for 4-48 hr. Two surprising and unexpected results emerged from the PK studies summarized in Table 8: 1) PEGylation of the amino-terminal amino acids of non-glycosylated neublastin was not sufficient to increase serum exposure substantially, and 2) PEGylation of the amino-terminal amino acid(s) of neublastin together with modification (e.g. PEGylation or glycosylation) of amino acid 95 was sufficient to increase serum exposure substantially."}, "[5]": {"assay": "Pharmacokinetic studies in rats (circulating levels after IV, s.c. or i.p. administration)", "assay_type": "in vivo, Sprague Dawley rats", "experimental": "The proteins were below the threshold of detection in the serum following subcutaneous administration. To increase bioavailability of neublastin, PEGylated forms of mutated neublastin were constructed.\nThe pharmokinetic properties of various PEGylated and non-PEGylated mutated neublastin products in rat and mouse models were examined (see Table 8 for summary of results).\nFollowing a 1 mg/kg IV administration in Sprague Dawley rats, peak levels of PEGylated mutated neublastin of 3000 ng/mL were detected after 7 minutes, and levels of 700 ng/mL were detected after 24 h, 200 ng/mL after 48 h, and 100 ng/mL after 72 h. In contrast for non-PEGylated mutated neublastin N95K following a 1 mg/kg IV administration, levels of 1500 ng/mL were detected after 7 minutes, but then the levels quickly dropped to 70 ng/mL after 3 h and were not detectable after 7 h. The effects of PEGylation were even more pronounced in animals treated with PEGylated neublastin by subcutaneous administration.\nFollowing a 1 mg/kg s.c. administration, circulating levels of PEGylated neublastin reached a maximum of 200 ng/mL after 24 h and remained at this level for the duration of the three day study.\nThe analysis of the PEGylated N95K samples are complicated by the presence of adducts comprising 2, 3 and 4 PEGs per molecule, which each will display a different PK profile. In early PK studies, mice were used to facilitate screening through a variety of candidates and routes of administration. […] This difference in bioavailability was particularly pronounced following i.p. administration. Levels in mice reached 1600 ng/mL after 7 hr and remained at 400 ng/mL after 24 hr. In contrast, rat levels were constant at 100 ng/mL for 4-48 hr."}, "[6]": {"system": "Chung L5/L6 spinal nerve ligation (\"SNL\") model", "assay": "Reversal of tactile allodynia and thermal hyperalgesia in the spinal nerve ligation model (Von Frey and Hargreave's tests)", "assay_type": "in vivo, Sprague-Dawley male rats", "experimental": "Here, we describe studies to address the reversal effect ofpegylated N95K neublastin on tactile allodynia and thermal hyperalgesia in the Chung L5/L6 spinal nerve ligation (\"SNL\") model. Sprague-Dawley male rats (230 - 380g) were divided into two groups. All rats received the spinal nerve ligation. One group of rats (n=6) was administered vehicle by subcutaneous injection. A second group of rats (n=6 per group) were administered pegylated N95K neublastin (3,(4) X 10 kDa PEG NBN106-N95K) by subcutaneous injection at 10 µg/kg. 3(,4) X 10 kDa PEG NBN106-N95K, comprised neublastin protein that was E. coli-derived and contained an Asn-to-Lys amino acid substitution at position 95, then truncated (amino-terminus truncation of 7 amino acids; NBN106), and finally pegylated with an average of 3.3 PEG moieties per dimer ofNBN, using methoxylpoly(ethylene glycol)-succinimidyl propionate (SPA-PEG) with a molecular mass of 10,000 Da as the reactant. The vehicle consisted of 5 mM phosphate and 150 mM sodium chloride at pH 6.5. Subcutaneous injections were administered on days 3, 5, 7, 10, 12 and 14 following the operation (post-SNL). The Von Frey (Chaplan et al. (1994), J. Neurosci. Meth. 53: 55-63) and Hargreave's (Hargreaves et al. (1988), Pain. 32: 77-88) behavioral tests were used to monitor tactile and thermal responses, respectively. These pain responses were monitored prior to the spinal nerve ligation to establish baseline responses, on day 2 post-SNL to verify the presence of tactile and thermal hyperalgesia, and then on days 3, 5, 7, 10, 12, 14 and 15 post-SNL. To assess statistical significance of drug treatment relative to vehicle treatment, a 1-way analysis of variance (1-way ANOVA) was carried out followed by a post-hoc Student Neuman Keuls (SNK) test."}}}
{"molecule": "B1", "values": [{"measurement": "specific activity in the KIRA ELISA", "setting": "[1]", "value": 10, "unit": "nM"}, {"measurement": "KIRA: ∼EC50", "setting": "[2]", "value": "~1.6", "unit": "nM"}, {"measurement": "KIRA: ∼Max Efficacy vs WT", "setting": "[2]", "value": "~90", "unit": "%"}]}
{"molecule": "B2", "values": [{"measurement": "KIRA ELISA (potency in activating Ret, fold less than wild-type NBN113)", "setting": "[1]", "value": "~10", "unit": "fold"}, {"measurement": "KIRA: ∼EC50", "setting": "[2]", "value": "~11", "unit": "nM"}, {"measurement": "KIRA: ∼Max Efficacy vs WT", "setting": "[2]", "value": "> 80", "unit": "%"}]}
{"molecule": "B3", "values": [{"measurement": "IC50 in the KIRA ELISA", "setting": "[1]", "value": "3 to 6", "unit": "nM"}, {"measurement": "specific activity in the KIRA ELISA", "setting": "[1]", "value": "~10", "unit": "nM"}, {"measurement": "KIRA: ∼Max Efficacy vs WT", "setting": "[2]", "value": "~100", "unit": "%"}]}
{"molecule": "B4", "values": [{"measurement": "activity / potency in the KIRA ELISA (in words)", "setting": "[3]; compared with wild-type NBN113 / mature form", "value": "indistinguishable from that of the wild-type NBN113 material"}, {"measurement": "effect of two freeze-thaw cycles on potency", "setting": "[3]; potency in KIRA ELISA after two freeze-thaw cycles", "value": "no effect"}, {"measurement": "levels in mice after 7 hr", "setting": "[4]; ip", "value": 1600, "unit": "ng/mL"}, {"measurement": "levels in mice after 24 hr", "setting": "[4]; ip", "value": 400, "unit": "ng/mL"}, {"measurement": "Exposure in Mice After s.c. Administration", "setting": "[4]; sc", "value": "++"}, {"measurement": "levels after 7 minutes", "setting": "[5]; 1 mg/kg IV, Sprague Dawley rats, 7 minutes", "value": 3000, "unit": "ng/mL"}, {"measurement": "levels after 24 h", "setting": "[5]; 1 mg/kg IV, Sprague Dawley rats, 24 h", "value": 700, "unit": "ng/mL"}, {"measurement": "levels after 48 h", "setting": "[5]; 1 mg/kg IV, Sprague Dawley rats, 48 h", "value": 200, "unit": "ng/mL"}, {"measurement": "maximum circulating levels", "setting": "[5]; 1 mg/kg s.c., maximum after 24 h, remained at this level for the three day study", "value": 200, "unit": "ng/mL"}, {"measurement": "normalization of pain behaviors (tactile and thermal hyperalgesia)", "setting": "[6]; 3 µg/kg s.c. on days 3, 5, 7, 10, 12 and 14, data not shown, onset somewhat slower", "value": "significant normalization"}, {"measurement": "reversal of both types of neuropathic pain (tactile allodynia and thermal hyperalgesia)", "setting": "[6]; 10 µg/kg s.c. on days 3, 5, 7, 10, 12 and 14 post-SNL, rats", "value": "substantial and statistically significant reversal"}, {"measurement": "time after initiation of administration at which effect on thermal sensitivity and tactile allodynia first became statistically significant", "setting": "[6]; 10 µg/kg s.c., rats", "value": 4, "unit": "days"}, {"measurement": "time after initiation of administration at which effect on thermal sensitivity and tactile allodynia reached a plateau", "setting": "[6]; 10 µg/kg s.c., rats", "value": "approximately 4 days"}]}
